Laboratory results as given in US20150098941A1 (Chugai, published 2015).

B1: Fc-modified humanized anti-GPC3 antibody V209 (S239D/A330L/I332E) (antibody, human IgG1)
heavy: QVQLVQSGAEVKKPGASVKVSCKASGYTFTDYEMHWVRQAPGQGLEWMGALDPKTGDTAYSQKFKGRVTLTADKSTSTAYMELSSLTSEDTAVYYCTRFYSYTYWGQGTLVTVSSASTKGPSVFPLAPSSKSTSGGTAALGCLVKDYFPEPVTVSWNSGALTSGVHTFPAVLQSSGLYSLSSVVTVPSSSLGTQTYICNVNHKPSNTKVDKKVEPKSCDKTHTCPPCPAPELLGGPDVFLFPPKPKDTLMISRTPEVTCVVVDVSHEDPEVKFNWYVDGVEVHNAKTKPREEQYNSTYRVVSVLTVLHQDWLNGKEYKCKVSNKALPLPEEKTISKAKGQPREPQVYTLPPSRDELTKNQVSLTCLVKGFYPSDIAVEWESNGQPENNYKTTPPVLDSDGSFFLYSKLTVDKSRWQQGNVFSCSVMHEALHNHYTQKSLSLSPGK
VL: DVVMTQSPLSLPVTPGEPASISCRSSQSLVHSNGNTYLHWYLQKPGQSPQLLIYKVSNRFSGVPDRFSGSGSGTDFTLKISRVEAEDVGVYYCSQNTHVPPTFGQGTKLEIK
notes: G1m(1) allotype
B2: Fc-modified humanized anti-GPC3 antibody V922 (S239D/K326T/I332E) (antibody, human IgG1)
heavy: QVQLVQSGAEVKKPGASVKVSCKASGYTFTDYEMHWVRQAPGQGLEWMGALDPKTGDTAYSQKFKGRVTLTADKSTSTAYMELSSLTSEDTAVYYCTRFYSYTYWGQGTLVTVSSASTKGPSVFPLAPSSKSTSGGTAALGCLVKDYFPEPVTVSWNSGALTSGVHTFPAVLQSSGLYSLSSVVTVPSSSLGTQTYICNVNHKPSNTKVDKKVEPKSCDKTHTCPPCPAPELLGGPDVFLFPPKPKDTLMISRTPEVTCVVVDVSHEDPEVKFNWYVDGVEVHNAKTKPREEQYNSTYRVVSVLTVLHQDWLNGKEYKCKVSNTALPAPEEKTISKAKGQPREPQVYTLPPSRDELTKNQVSLTCLVKGFYPSDIAVEWESNGQPENNYKTTPPVLDSDGSFFLYSKLTVDKSRWQQGNVFSCSVMHEALHNHYTQKSLSLSPGK
VL: DVVMTQSPLSLPVTPGEPASISCRSSQSLVHSNGNTYLHWYLQKPGQSPQLLIYKVSNRFSGVPDRFSGSGSGTDFTLKISRVEAEDVGVYYCSQNTHVPPTFGQGTKLEIK
B3: Fc-modified humanized anti-GPC3 antibody V209 nG1m(1) allotype (S239D/A330L/I332E/D356E/L358M) (antibody, human IgG1, name in EU numbering)
heavy: QVQLVQSGAEVKKPGASVKVSCKASGYTFTDYEMHWVRQAPGQGLEWMGALDPKTGDTAYSQKFKGRVTLTADKSTSTAYMELSSLTSEDTAVYYCTRFYSYTYWGQGTLVTVSSASTKGPSVFPLAPSSKSTSGGTAALGCLVKDYFPEPVTVSWNSGALTSGVHTFPAVLQSSGLYSLSSVVTVPSSSLGTQTYICNVNHKPSNTKVDKKVEPKSCDKTHTCPPCPAPELLGGPDVFLFPPKPKDTLMISRTPEVTCVVVDVSHEDPEVKFNWYVDGVEVHNAKTKPREEQYNSTYRVVSVLTVLHQDWLNGKEYKCKVSNKALPLPEEKTISKAKGQPREPQVYTLPPSREEMTKNQVSLTCLVKGFYPSDIAVEWESNGQPENNYKTTPPVLDSDGSFFLYSKLTVDKSRWQQGNVFSCSVMHEALHNHYTQKSLSLSPGK
VL: DVVMTQSPLSLPVTPGEPASISCRSSQSLVHSNGNTYLHWYLQKPGQSPQLLIYKVSNRFSGVPDRFSGSGSGTDFTLKISRVEAEDVGVYYCSQNTHVPPTFGQGTKLEIK
B4: Fc-modified humanized anti-GPC3 antibody V22 (I332E) (antibody)
heavy: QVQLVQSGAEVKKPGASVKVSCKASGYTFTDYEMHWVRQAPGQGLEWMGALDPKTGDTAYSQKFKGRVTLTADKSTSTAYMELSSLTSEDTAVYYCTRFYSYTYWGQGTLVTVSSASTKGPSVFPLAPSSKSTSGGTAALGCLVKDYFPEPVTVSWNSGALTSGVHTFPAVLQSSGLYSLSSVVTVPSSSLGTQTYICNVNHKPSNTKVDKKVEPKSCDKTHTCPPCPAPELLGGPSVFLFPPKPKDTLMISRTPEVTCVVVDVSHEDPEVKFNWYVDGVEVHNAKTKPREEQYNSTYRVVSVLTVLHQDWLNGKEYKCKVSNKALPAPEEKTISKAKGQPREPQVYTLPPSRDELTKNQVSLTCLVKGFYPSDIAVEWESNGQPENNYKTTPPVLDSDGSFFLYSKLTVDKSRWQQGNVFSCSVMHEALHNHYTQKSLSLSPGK
VL: DVVMTQSPLSLPVTPGEPASISCRSSQSLVHSNGNTYLHWYLQKPGQSPQLLIYKVSNRFSGVPDRFSGSGSGTDFTLKISRVEAEDVGVYYCSQNTHVPPTFGQGTKLEIK
notes: also called pC-aGPChl (22)
B5: Fc-modified humanized anti-GPC3 antibody V212 (S239D/S298A/I332E) (antibody, human IgG1)
heavy: QVQLVQSGAEVKKPGASVKVSCKASGYTFTDYEMHWVRQAPGQGLEWMGALDPKTGDTAYSQKFKGRVTLTADKSTSTAYMELSSLTSEDTAVYYCTRFYSYTYWGQGTLVTVSSASTKGPSVFPLAPSSKSTSGGTAALGCLVKDYFPEPVTVSWNSGALTSGVHTFPAVLQSSGLYSLSSVVTVPSSSLGTQTYICNVNHKPSNTKVDKKVEPKSCDKTHTCPPCPAPELLGGPDVFLFPPKPKDTLMISRTPEVTCVVVDVSHEDPEVKFNWYVDGVEVHNAKTKPREEQYNATYRVVSVLTVLHQDWLNGKEYKCKVSNKALPAPEEKTISKAKGQPREPQVYTLPPSRDELTKNQVSLTCLVKGFYPSDIAVEWESNGQPENNYKTTPPVLDSDGSFFLYSKLTVDKSRWQQGNVFSCSVMHEALHNHYTQKSLSLSPGK
VL: DVVMTQSPLSLPVTPGEPASISCRSSQSLVHSNGNTYLHWYLQKPGQSPQLLIYKVSNRFSGVPDRFSGSGSGTDFTLKISRVEAEDVGVYYCSQNTHVPPTFGQGTKLEIK
notes: also called pC-aGPChl (212)

Target: T1, fused protein GST-GPC3 (GST and human glypican-3 peptide of SEQ ID NO: 16) (human, UniProt P51654 524-563)
T1 construct: It was immobilized on a BIACORE chip; also called GPC3 peptide; not shown: GST (glutathione S-transferase)
T1 sequence (P51654 524-563 limits assumed): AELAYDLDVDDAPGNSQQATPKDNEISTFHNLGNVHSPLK
Assay: SPR (BIACORE 3000), CHO culture supernatant over immobilized GST-GPC3
Method: This was introduced into 2×10⁶/0.6 ml PBS(−) of CHO cells (strain DXB11S) according to an electroporation method under a condition of 1.5 kV and 25 uF. The cells were incubated in a 8% CO₂ incubator at 37° C. The cells were screened in CHO-S-SFMII medium (Invitrogen) containing 400 μg/ml of geneticin. Selected cells were inoculated into a CHO-S-SFMII medium containing 400 μg/ml geneticin in a 96-well plate at 0.4 cells/100 μl/well, and the cells were cloned according to a limiting dilution method. The culture supernatant was analyzed with BIACORE 3000. The antigen was quantified using a chip with fused protein GST-GPC3 (antigen GST and human glypican-3 shown by SEQ ID NO:16) immobilized thereon, and high-expression cells were selected.

Binding result, binds:
B1, B2, B3, B4, B5
